± gives the half width of the 95% confidence interval.
Legend:
[1] = folding stability dG unfold from trypsin proteolysis; higher = more stable
Summary of the method: (§1)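 Designed mini-proteins with no cysteine and under 80 residues were kept only if AlphaFold2 dimer inter-PAE was above 15. In a PA-tagged cDNA display construct, they were digested with trypsin and chymotrypsin and then sequenced. K50 was inferred by Bayesian fitting of counts, and unfolding free energy was derived per protease or combined against a sequence-predicted unfolded-state K50 and a shared folded-state K50.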

[2] = folding stability dG unfold (combined trypsin and chymotrypsin); higher = more stable
Summary of the method: as §1

[3] = folding stability dG unfold from chymotrypsin proteolysis; higher = more stable
Summary of the method: as §1

Sequence	folding stability dG unfold [1] [kcal/mol]	folding stability dG unfold [2] [kcal/mol]	folding stability dG unfold [3] [kcal/mol]
SAGKLKPGDPVKIKIEIERDPGNGMVRVTYKIEFKDGMYVTMIIPPNGPIHVEIFNPDDGKEREETIPLSAG [r5_55_TrROS]	2.15 ± 0.085	2.46 ± 0.26	2.67 ± 0.096
SRTIENPDNGIKITVDRVPGGRYRVHIFNPGGKPIHEREIPDMPIPPGDTREIKIPIKGLPPGMYLMLEPWS [r1_263_TrROS]	0.502 ± 0.16	0.719 ± 0.13	0.842 ± 0.13
SAGGSAGGSAGITIWFPYDNIPEILEEAQKNGMEIKSVERVPDGWYLIKMPGKPIEIHIWSAGGSAGGSAGG [r17_379_TrROS]	0.94 ± 0.032	1.33 ± 0.07	1.55 ± 0.06
SAGGSAGGSARITVTPEGGYWRVTIKGPGKTRTFQFPMPANEAEEIVEELQNPPIDIDVEPVSAGGSAGGSA [r18_103_TrROS]	-0.328 ± 0.3	-0.115 ± 0.14	-0.142 ± 0.2
SAGGSAGGSNKLVKELAKDPNIKSIFVDTKNKKVYILTDNYLIVIDKNGKIEKIEPISPEKLKSAGGSAGGS [r12_895_TrMRF]	0.446 ± 0.098	1.16 ± 0.17	1.26 ± 0.15
SAGGSAGGSAGVVDEVKAALEPQGLKVLSVTPGSSSVTVTVLDPKKGETTTFTIPLDDPLSAGGSAGGSAGG [r11_428_JUSTAS]	1.02 ± 0.029	1.22 ± 0.057	1.28 ± 0.088
SAGGSAGGSKITVHRNPPGYYVIRIHGPGPITIMIPPKDADELANKLKDLGFDMKVEVYPLDDSAGGSAGGS [r20_124_TrROS]	1.23 ± 0.028	1.1 ± 0.11	1.05 ± 0.1
SAMVRIERLPDGSLLVVVESEGKEEGLEFIERFIEEIKSLGIDAEIELLSIEEIPEDPKRYRATFLIKASAG [r14_119_TrMRF]	4.83 ± 0.22	> 6	6.12 ± 0.27
SMDLRLEVVSVEIEPEGRTLRIRVRVRLTALDPDDPDLPVPVLEVEVEIPIPLPEPLPLPVPNDPRALAASA [r9_357_TrMRF]	1.63 ± 0.11	2.25 ± 0.21	2.75 ± 0.037
SAGGSAKKKVTITVEKKGDKYLVTIEVDGKTVVIEVPKDTTIEEIAAALPPGAKIKEIKVVKAEELSAGGSA [r15_1058_TrROS_Hall]	0.716 ± 0.034	1.16 ± 0.067	1.33 ± 0.031
SITIMVDNLPPGATAEELASTLFNWIQQFGWEVTPIKITPMPDNWVTVEIEFKNNGKPIFRETIEFRPDASA [r9_953_TrROS]	2.4 ± 0.092	3.26 ± 0.09	3.56 ± 0.06
SAMKVEIVEVKKNEDGSEEITIKIVVPDDKDMTPEELAALLKKEFGVDEVKVEVVDENGYKVITITIKRSAG [r14_228_TrROS_Hall]	4.03 ± 0.26	3.9 ± 0.24	3.55 ± 0.15
SAGGLSYIELEVEFPGGGSFEEAKARAEKLAEEVRKKLGLKEVKIEIKKNPDGSYRVKITIKVPSKLSAGGS [r8_3_JUSTAS]	2.76 ± 0.063	3.02 ± 0.14	3.04 ± 0.077
SAGGSAGGSAGDPVLTVTLLDDNHPVTLTYHPGEKTVTVSVYPLKSGKVLGTVTVPASELSAGGSAGGSAGG [r11_231_TrMRF]	-1.45 ± 0.71	-0.0506 ± 0.12	0.37 ± 0.13
MKTIEIEIKLSPEIKEALKEGKPLSLEELVNKIKEEIAKKLGLKEVKVKKIEIKKDENGEIIIKVTIEVKPS [r1_290_TrROS_Hall]	3.9 ± 0.38	3.31 ± 0.27	2.77 ± 0.091
SAGGSAGGSAGSMTTTTTIVKLPNGTLVLETPTVTTTTFPETGTTTTTTTVTVTVLPGLSSAGGSAGGSAGG [r11_1008_JUSTAS]	2.47 ± 0.076	1.89 ± 0.065	1.3 ± 0.029
SAGGLIIPEEYEIVEKKAEILPDGSLRYTFILRPKSGELLLVEIRYPPDGSIEIEARRLTPEELKKALSAGG [r13_773_TrMRF]	3.13 ± 0.076	3.56 ± 0.074	3.71 ± 0.045
SAGGSAGGSKKDPEDNPEQAKPPIPPIRVEIYPPDGQPETFEFHSLEEITEWIQERGYTVKIESAGGSAGGS [r12_244_TrROS]	0.668 ± 0.022	0.974 ± 0.065	1.12 ± 0.051
SAGGSAGGSSKYIKFIIPANSPEAIEKAKELAEFIKKKYPGIKKIEVKYNPEKGYLEVIAEVESAGGSAGGS [r12_248_TrMRF]	4.08 ± 0.28	3.96 ± 0.17	3.87 ± 0.048
SAGGSASVLEEAIEEAKKLPPGSVVPLTVTVPTDGEPVVYEILITVHPGENTIEVEKKRKFSPERLSAGGSA [r15_724_JUSTAS]	-0.411 ± 0.14	0.439 ± 0.095	0.779 ± 0.1
SAGGSAGGSAGPVPKTITVTVSSPEEAEAAVKEIKPKYPNVKVERKKVGDKIVLTITVEESAGGSAGGSAGG [r17_319_JUSTAS]	1.86 ± 0.11	1.75 ± 0.16	1.88 ± 0.093

Source: the supplement of paper PMC12764529
